The values below come from publication PMC9812370 (Cell Reports, 2023).

This experiment has as its target SARS-CoV-2 wild-type (D614G) HexaPro S protein ectodomain (SARS-CoV-2 Wuhan-Hu-1 with D614G …, D614G). Kind of experiment: ELISA. For orientation: In an ELISA, binding on a coated surface is turned into a signal by an enzyme label.

B1: Fab 4A8 (Fab, V domains shown)
VH: EVQLVESGAEVKKPGASVKVSCKVSGYTLTELSMHWVRQAPGKGLEWMGGFDPEDGETMYAQKFQGRVTMTEDTSTDTAYMELSSLRSEDTAVYYCATSTAVAGTPDLFDYYYGMDVWGQGTTVTVSS
VL: EIVMTQSPLSSPVTLGQPASISCRSSQSLVHSDGNTYLSWLQQRPGQPPRLLIYKISNRFSGVPDRFSGSGAGTDFTLKISRVEAEDVGVYYCTQATQFPYTFGQGTKVDIK
Consider B1, for which the binding result is listed as “binds”.
